Patent publication US20060216279A1

Molecular target: rmGDF8 (R&D) (mouse (from the label rmGDF8 only)) (UniProt O08689)
Assay: Biacore, trap captured on amine-coupled Protein A (CM5), rmGDF8 0.312-20 nM as analyte

Sequence of UniProt O08689 (O08689 268-376 limits assumed): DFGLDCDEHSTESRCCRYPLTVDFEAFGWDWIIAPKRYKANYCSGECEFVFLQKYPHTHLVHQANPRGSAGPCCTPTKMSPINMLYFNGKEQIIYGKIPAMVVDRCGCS

Kd: 0.0133 nM
koff: 6.2e-05 s⁻¹
kon: 4.66e+06 M⁻¹ s⁻¹
t½: 3.1 h
Substance: hGDF8(1-38, 43-64)-hFc (Fc fusion)
